Experimental data as given in patent US20180148497A1.

Experiments:
[1] = target: cell surface Env of HIV-1 infected (p24+) CD4+ T cells (IMCs subtype AE CM235, subtype B BaL, subtype C 1086.C, as a group); assay: flow cytometry, negative control staining of p24+ IMC-infected CD4+ T cells (FIG. 27)
[2] = target: cell surface Env of HIV-1 infected (p24+) CD4+ T cells (IMCs subtype AE CM235, subtype B BaL, subtype C 1086.C, as a group); assay: flow cytometry, staining of p24+ CD4+ T cells infected with BaL, CM235 or 1086.C IMC (FIG. 27)
[3] = target: cell surface Env of HIV-1 infected (p24+) CD4+ T cells (IMCs subtype AE CM235, subtype B BaL, subtype C 1086.C, as a group); assay: flow cytometry, indirect staining of p24+ CD4+ T cells infected with BaL, CM235 or 1086.C IMC (FIG. 27)

Palivizumab mAb (anti-RSV) (antibody) was tested, and the % of HIV-1 infected (p24+) CD4+ T cells recognized [1] was < 5%.
For “secondary conjugated Abs (secondary fluoresceinated anti-human IgG Abs) (antibody)”, the % of HIV-1 infected (p24+) CD4+ T cells recognized [1] was < 5%.
In the case of “HIV-1 × Fluorescein Bi-Specific Diabody (7B2 × 4420) (bispecific antibody)”, the % of HIV-1 infected (p24+) CD4+ T cells recognized [2] is reported as 66 to 78%.
For “7B2 mAb (anti-gp41 cluster I) (antibody)”, the % of HIV-1 infected (p24+) CD4+ T cells recognized [3] was 24 to 38%.
